{"source": "patent US20250066499A1", "about": "(SUNSHINE GUOJIAN PHARMACEUTICAL SHANGHAI, published 2025)", "binders": {"B1": {"name": "48A11-HuV33 (antibody, human IgG4, V domains shown)", "VH": "QVQLVQSGAEVKKPGASVKVSCKASGYTFTSYWMHWVRQAPGQGLEWIGEINPSIGRTNYNEKFKSRVTLTRDTSTSTAYMELSSLRSEDTAVYYCARRVYGTMDYWGQGTLVTVSS", "VL": "DIQMTQSPSSLSASVGDRVTITCKASQDINSYLSWFQQKPGKSPKLLIYRANIWVDGVPSRFSGSGSGQDYTFTISSLQPEDIATYYCLQYDELYTFGQGTKVEIK", "notes": "Humanized"}}, "key": {"[1]": {"target": "T1, CD73-ND-his (human, UniProt P21589 27-317)", "T1 construct": "Biotinylated and captured on streptavidin in the ELISA", "T1 sequence": "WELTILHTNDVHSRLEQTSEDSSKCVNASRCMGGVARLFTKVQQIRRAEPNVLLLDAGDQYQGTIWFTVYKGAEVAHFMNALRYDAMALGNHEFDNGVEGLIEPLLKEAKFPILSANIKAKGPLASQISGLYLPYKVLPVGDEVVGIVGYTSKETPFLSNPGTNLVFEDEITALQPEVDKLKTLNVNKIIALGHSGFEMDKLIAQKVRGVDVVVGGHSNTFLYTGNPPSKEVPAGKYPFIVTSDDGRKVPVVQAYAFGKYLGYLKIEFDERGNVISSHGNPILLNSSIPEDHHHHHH", "experiment": "ELISA, high plateau value (OD 450 nm)", "method": "(§1) The ELISA plates were coated with SA protein diluted to 1.5 μg/mL in coating buffer (50 mM carbonate coating buffer, pH 9.6) and incubated overnight at 4° C. The supernatant was discarded, and the plates were washed three times with PBST. Then, 5% skimmed milk powder prepared with PBS was added for blocking and the plates were incubated for 2 h at 37° C. After washing the plates once with PBST, CD73-biotin protein (prepared by biotinylating CD73-His protein according to the EZ-Link NHS-Biotin Reagent instructions) was diluted to 0.5 μg/mL and added at 100 μL/well for incubation at room temperature for 1 h. The plates were washed three times with PBST, and the prepared murine-derived monoclonal antibodies against human CD73 were serially diluted with 1% BSA buffer prepared with PBST and added to the ELISA plates at 100 μl/well. The plates were incubated at 37° C. for 1 h. After washing the plates three times with PBST, HRP-labeled goat anti-mouse IgG secondary antibody was added and the plates were incubated for 30 min at 37° C. After washing the plates three times with PBST, the residual droplets were patted dry on absorbent paper as much as possible. Then, 100 μl of TMB color developing solution was added to each well, and the plates were incubated in the dark at room temperature for 5 min for color development. Subsequently, 50 μl of 2M H₂SO₄ stop solution was added to each well to terminate the substrate reaction. The OD values were read at 450 nm using a multimode microplate reader to analyze the binding ability of the tested antibodies to the target antigen human CD73-His.\n(§2) Referring to the experimental method in Example 3, the affinity of 48A11-HuV33 for various mutant proteins of CD73-ND was determined. The SA protein was diluted to 1 μg/mL for coating the ELISA plates, and the biotinylated CD73 protein (CD73-biotin) was used at a concentration of 0.1 μg/mL."}, "[2]": {"target": "T2, CD73-ND-T183A (human, UniProt P21589 27-317)", "T2 construct": "Alanine mutant of CD73-ND", "T2 sequence": "T1 sequence with T183A", "experiment": "ELISA, high plateau value (OD 450 nm)", "method": "as §1, §2"}, "[3]": {"target": "T3, CD73-ND-K182A (human, UniProt P21589 27-317)", "T3 construct": "Alanine mutant of CD73-ND", "T3 sequence": "T1 sequence with K182A", "experiment": "ELISA, high plateau value (OD 450 nm)", "method": "as §1, §2"}, "[4]": {"target": "T4, CD73-ND-V186A (human, UniProt P21589 27-317)", "T4 construct": "Alanine mutant of CD73-ND", "T4 sequence": "T1 sequence with V186A", "experiment": "ELISA; decline multiple of EC50 against CD73-ND", "method": "as §1, §2"}, "[5]": {"target": "T5, CD73-ND-N187A (human, UniProt P21589 27-317)", "T5 construct": "Alanine mutant of CD73-ND", "T5 sequence": "T1 sequence with N187A", "experiment": "ELISA; decline multiple of EC50 against CD73-ND", "method": "as §1, §2"}, "[6]": {"target": "T1, CD73-ND-his", "experiment": "ELISA; decline multiple of EC50 against CD73-ND", "method": "as §1, §2"}, "[7]": {"target": "T4, CD73-ND-V186A", "experiment": "ELISA, biotinylated antigen on streptavidin plate", "method": "as §1, §2"}}, "note": "Positions count from the first letter of the chain named."}
{"binder": "B1", "values": [{"measurement": "Top", "setting": "[1]", "value": 1.98}, {"measurement": "Top", "setting": "[2]", "value": 1.98}, {"measurement": "Top", "setting": "[3]", "value": 2.03}, {"measurement": "Ratio(EC50)", "setting": "[4]", "value": 1.4, "unit": "fold"}, {"measurement": "Ratio(EC50)", "setting": "[5]", "value": 0.9, "unit": "fold"}, {"measurement": "Ratio(EC50)", "setting": "[6]", "value": 0.8, "unit": "fold"}, {"measurement": "EC50", "setting": "[7]", "value": 160, "unit": "pM"}]}
